In the test the target is PD-L1-his fusion protein (Homo sapiens (Human), UniProt Q9NZQ7 19-238). Kind of test: ELISA, PD-L1-his coated, culture supernatant of the clone. For orientation: An ELISA detects its analyte on a solid surface through an enzyme-linked reagent.
PD-L1-his fusion protein, sequence (Q9NZQ7 other isoform, or with tags, fused parts or gaps limits assumed): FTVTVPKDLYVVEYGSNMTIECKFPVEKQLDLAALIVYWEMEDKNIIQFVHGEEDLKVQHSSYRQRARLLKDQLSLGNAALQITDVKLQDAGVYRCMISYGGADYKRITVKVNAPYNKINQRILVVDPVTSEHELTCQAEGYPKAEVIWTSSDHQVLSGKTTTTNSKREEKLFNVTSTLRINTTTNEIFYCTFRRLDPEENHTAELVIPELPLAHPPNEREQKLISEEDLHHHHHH

B1: QP1127 nanobody (VHH)
VHH: QVQLVESGGGSVQSGGSLTLSCAISGYAYATYSMAWFRQAHGKEREGVAAINSDGHTTYVDSVKGRFTISRDNTNKNSYTLTLTMNNLNPEDTAMYYCAATSQLGFWAQKLWEAIRDGTWSPSTTDFGFWGRGTQVTVSS
notes: as m59
With B1, the binding result is listed as “binds”.

B2: QP1124 nanobody (VHH)
VHH: QVQLVESGGGLVQPGGSLRLSCTAPGFTSNTCAMGWYRQAAGMQREWVSSISKYGITTYANSVKGRFTISKDKAEDTVYLQMNNLKPEDTAMYVCKTFSCRNRGGAYLADAWGQGTQVTVSS
notes: as m59
Turning to B2, the binding result was “binds”.

B3: QP1128 nanobody (VHH)
VHH: QVQLVESGGGSVQSGGSLRLSCAASGYTASAYYMAWFRQNSRKQREGVAAINRDGDTKYADSVKGRFTISRDDAKNTLYLQMNSLKPEDTAVYYCAASDWSRLYKIYWLDDNYYVRWGQGTQVTVSS
notes: as m59
Turning to B3, the binding result is given as “binds”.

B4: QP1125 nanobody (VHH)
VHH: QVQLVESGGGLVQPGGSLRLSCTAPGFTDKTCAMAWYRQVAGIEREWVSSISTLGTTNYASSVKGRFTISKDNAKDTVYLQMNNLKPEDTAMYVCKTFSCRNRGGSYLPDTWGQGTQVTVSS
notes: as m59
In the case of B4, the binding result was “binds”.

The values above are taken from US20220242974A1 (QURE BIOTECHNOLOGY SHANGHAI, published 2022).
